# In PMC9376112, “XPC–PARP complexes engage the chromatin remodeler ALC1 to catalyze global genome DNA damage repair” (Nature Communications, 2022):
# How the values were obtained:
# [1] = biological target: T1, PARP1-GFP (UniProt P09874 1-1014); assay: affinity purification with mass spectrometry; GFP pull-down of PARP1-GFP or GFP-PARP2 from U2OS (FRT) WT cells, label-free proteomics with iBAQ quantification; cells unirradiated or UV-C-irradiated (20 J/m^2, 1 h); settings: partners not purified
# T1 construct: source: U2OS (FRT) WT, stably expressed (Flp-In, doxycycline-inducible), in lysate; not shown: GFP, C-terminal, kept
# T1 sequence (P09874 whole entry): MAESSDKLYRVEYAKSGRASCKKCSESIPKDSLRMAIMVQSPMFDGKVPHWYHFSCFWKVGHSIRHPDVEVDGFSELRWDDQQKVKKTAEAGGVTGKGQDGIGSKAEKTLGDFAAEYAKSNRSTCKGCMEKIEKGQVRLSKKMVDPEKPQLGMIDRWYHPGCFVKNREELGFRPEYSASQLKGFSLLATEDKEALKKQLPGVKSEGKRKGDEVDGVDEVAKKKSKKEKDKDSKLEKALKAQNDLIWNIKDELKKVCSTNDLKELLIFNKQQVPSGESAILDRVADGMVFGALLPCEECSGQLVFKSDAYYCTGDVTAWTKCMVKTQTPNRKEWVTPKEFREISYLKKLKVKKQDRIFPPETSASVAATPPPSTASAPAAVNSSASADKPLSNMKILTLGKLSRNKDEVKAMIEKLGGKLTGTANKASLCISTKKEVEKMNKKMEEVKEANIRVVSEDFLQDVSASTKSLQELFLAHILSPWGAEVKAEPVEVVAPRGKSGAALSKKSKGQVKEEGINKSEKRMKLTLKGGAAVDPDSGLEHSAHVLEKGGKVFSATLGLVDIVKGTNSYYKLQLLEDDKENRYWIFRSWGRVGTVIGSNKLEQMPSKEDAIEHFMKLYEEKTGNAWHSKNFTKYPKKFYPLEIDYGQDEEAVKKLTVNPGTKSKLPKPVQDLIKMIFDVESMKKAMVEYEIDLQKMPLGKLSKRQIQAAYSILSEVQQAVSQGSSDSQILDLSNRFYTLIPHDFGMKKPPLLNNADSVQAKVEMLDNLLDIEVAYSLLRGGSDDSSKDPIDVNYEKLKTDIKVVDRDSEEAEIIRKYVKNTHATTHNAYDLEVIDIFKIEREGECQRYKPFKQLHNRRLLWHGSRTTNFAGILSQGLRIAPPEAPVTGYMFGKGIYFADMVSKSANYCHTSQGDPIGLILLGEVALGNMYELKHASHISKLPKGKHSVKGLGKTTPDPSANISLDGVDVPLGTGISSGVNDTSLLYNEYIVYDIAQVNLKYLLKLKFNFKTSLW
# [2] = biological target: T2, GFP-PARP2 (UniProt Q9UGN5-2 1-570); assay: as above; settings: partners not purified
# T2 construct: also called PARP2-GFP; source: U2OS (FRT) WT, stably expressed (Flp-In, doxycycline-inducible), in lysate; not shown: GFP, N-terminal, kept
# T2 sequence (Q9UGN5 other isoform, or with tags, fused parts or gaps): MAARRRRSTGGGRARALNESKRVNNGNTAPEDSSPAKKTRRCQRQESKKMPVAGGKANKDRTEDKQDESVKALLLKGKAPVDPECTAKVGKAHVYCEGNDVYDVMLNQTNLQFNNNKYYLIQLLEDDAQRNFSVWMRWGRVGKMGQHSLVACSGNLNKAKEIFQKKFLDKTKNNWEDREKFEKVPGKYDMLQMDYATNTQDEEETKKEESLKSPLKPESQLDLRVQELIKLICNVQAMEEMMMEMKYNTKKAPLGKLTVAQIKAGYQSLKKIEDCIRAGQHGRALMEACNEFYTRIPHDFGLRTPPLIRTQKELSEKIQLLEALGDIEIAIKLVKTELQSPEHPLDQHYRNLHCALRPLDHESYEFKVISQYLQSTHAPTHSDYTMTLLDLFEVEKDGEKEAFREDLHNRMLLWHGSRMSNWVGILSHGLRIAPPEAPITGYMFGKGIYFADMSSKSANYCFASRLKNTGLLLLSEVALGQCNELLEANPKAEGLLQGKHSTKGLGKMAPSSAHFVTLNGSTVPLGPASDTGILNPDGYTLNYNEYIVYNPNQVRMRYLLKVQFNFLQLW
Binder,percent of the isolated bait molecules associated with the prey (iBAQ) [1],percent of the isolated bait molecules associated with the prey (iBAQ) [2],"fold, fraction of bait molecules associated with XPC, GFP-PARP2 against PARP1-GFP (iBAQ) [2]"
"ALC1 (endogenous) (enzyme, human (endogenous in U2OS), UniProt Q86WJ1 1-897, looked up, ALC1 (CHD1L), endogenous in U2OS cells; also called poly-(ADP-ribose)-dependent chromatin remodeler ALC1; the remodeler; source: endogenous, U2OS (FRT) WT lysate) MERAGATSRGGQAPGFLLRLHTEGRAEAARVQEQDLRQWGLTGIHLRSYQLEGVNWLAQRFHCQNGCILGDEMGLGKTCQTIALFIYLAGRLNDEGPFLILCPLSVLSNWKEEMQRFAPGLSCVTYAGDKEERACLQQDLKQESRFHVLLTTYEICLKDASFLKSFPWSVLVVDEAHRLKNQSSLLHKTLSEFSVVFSLLLTGTPIQNSLQELYSLLSFVEPDLFSKEEVGDFIQRYQDIEKESESASELHKLLQPFLLRRVKAEVATELPKKTEVVIYHGMSALQKKYYKAILMKDLDAFENETAKKVKLQNILSQLRKCVDHPYLFDGVEPEPFEVGDHLTEASGKLHLLDKLLAFLYSGGHRVLLFSQMTQMLDILQDYMDYRGYSYERVDGSVRGEERHLAIKNFGQQPIFVFLLSTRAGGVGMNLTAADTVIFVDSDFNPQNDLQAAARAHRIGQNKSVKVIRLIGRDTVEEIVYRKAASKLQLTNMIIEGGHFTLGAQKPAADADLQLSEILKFGLDKLLASEGSTMDEIDLESILGETKDGQWVSDALPAAEGGSRDQEEGKNHMYLFEGKDYSKEPSKEDRKSFEQLVNLQKTLLEKASQEGRSLRNKGSVLIPGLVEGSTKRKRVLSPEELEDRQKKRQEAAAKRRRLIEEKKRQKEEAEHKKKMAWWESNNYQSFCLPSEESEPEDLENGEESSAELDYQDPDATSLKYVSGDVTHPQAGAEDALIVHCVDDSGHWGRGGLFTALEKRSAEPRKIYELAGKMKDLSLGGVLLFPVDDKESRNKGQDLLALIVAQHRDRSNVLSGIKMAALEEGLKKIFLAAKKKKASVHLPRIGHATKGFNWYGTERLIRKHLAARGIPTYIYYFPRSKSAVLHSQSSSSSSRQLVP",0.07%,~15%,
"XPC (endogenous) (natural protein, human (endogenous in U2OS), UniProt Q01831 1-940, looked up, XPC, endogenous in U2OS cells; source: endogenous, U2OS (FRT) WT lysate) MARKRAAGGEPRGRELRSQKSKAKSKARREEEEEDAFEDEKPPKKSLLSKVSQGKRKRGCSHPGGSADGPAKKKVAKVTVKSENLKVIKDEALSDGDDLRDFPSDLKKAHHLKRGATMNEDSNEEEEESENDWEEVEELSEPVLGDVRESTAFSRSLLPVKPVEIEIETPEQAKTRERSEKIKLEFETYLRRAMKRFNKGVHEDTHKVHLLCLLANGFYRNNICSQPDLHAIGLSIIPARFTRVLPRDVDTYYLSNLVKWFIGTFTVNAELSASEQDNLQTTLERRFAIYSARDDEELVHIFLLILRALQLLTRLVLSLQPIPLKSATAKGKKPSKERLTADPGGSSETSSQVLENHTKPKTSKGTKQEETFAKGTCRPSAKGKRNKGGRKKRSKPSSSEEDEGPGDKQEKATQRRPHGRERRVASRVSYKEESGSDEAGSGSDFELSSGEASDPSDEDSEPGPPKQRKAPAPQRTKAGSKSASRTHRGSHRKDPSLPAASSSSSSSKRGKKMCSDGEKAEKRSIAGIDQWLEVFCEQEEKWVCVDCVHGVVGQPLTCYKYATKPMTYVVGIDSDGWVRDVTQRYDPVWMTVTRKCRVDAEWWAETLRPYQSPFMDREKKEDLEFQAKHMDQPLPTAIGLYKNHPLYALKRHLLKYEAIYPETAAILGYCRGEAVYSRDCVHTLHSRDTWLKKARVVRLGEVPYKMVKGFSNRARKARLAEPQLREENDLGLFGYWQTEEYQPPVAVDGKVPRNEFGNVYLFLPSMMPIGCVQLNLPNLHRVARKLDIDCVQAITGFDFHGGYSHPVTDGYIVCEEFKDVLLTAWENEQAVIERKEKEKKEKRALGNWKLLAKGLLIRERLKRRYGPKSEAAAPHTDAGGGLSSDEEEGTSSQAEAARILAASWPQNREDEEKQKLKGGPKKTKREKKAAASHLFPFEQL",,,10 fold
